Reference: patent US6399759B1, “Ant proteases and methods of inhibition” (University of Georgia Research Foundation, Inc., priority 1999, dated 2002)

Legend:
Assay in all cases: Inhibition of amidolytic activity by naturally occurring protease inhibitors
Details in all cases: 10 minutes incubation at 25° C. in 50 mM Tris-HCl, 100 mM NaCl, pH 7.4
Soli C1 = biological target: T1, Soli C1 (Solenopsis invicta, UniProt Q7SIG2); type: biochemical
T1 construct: Fourth instar larvae were extracted in a 1:10 (weight/volume) ratio of 20 mM Tris-HCl pH 7.4; from tissue; host or cells: whole Solenopsis invicta 4th instar larvae (buffer extract, acetone precipitation, Q Sepharose peak III, Mono Q, Superdex 75)
T1 sequence (Q7SIG2 whole entry): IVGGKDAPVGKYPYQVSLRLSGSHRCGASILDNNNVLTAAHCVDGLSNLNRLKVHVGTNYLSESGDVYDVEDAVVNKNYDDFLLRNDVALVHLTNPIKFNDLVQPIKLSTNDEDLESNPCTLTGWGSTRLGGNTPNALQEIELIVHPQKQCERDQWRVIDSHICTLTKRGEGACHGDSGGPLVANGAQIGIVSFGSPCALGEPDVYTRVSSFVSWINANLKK
Experimental: (§1) Enzyme Assay—Generally, the amidolytic activities of each proteinase were measured with the substrates MeOSuc-Ala-Ala-Pro-Val-pNA (SEQ ID NO:8) and N-Suc-Ala-Ala-Pro-Phe-pNA (SEQ ID NO:7) in 0.05 M Tris-HCl and 100 mM NaCl pH 7.4 (assay buffer). Release of the pNA group was assayed by monitoring the optical density of the test solution at […]. Enzyme inhibition assays by protein inhibitors were conducted in the same assay buffer using an inhibitor concentration ranging from 0.02-50 nM with a 10 minute preincubation time and with the final enzyme concentration being 1.0 nM. All kinetic studies with substrates and inhibitors were performed at the optimum pH of the individual proteinases, utilizing the following buffers: 150 mM NaCl, 50 mM Tris-HCl pH 8.0 (E1); 150 mM NaCl, 50 mM CHES pH 9.5 (E2 and C2); and 150 mM NaCl, 50 mM CAPS pH 10.0 (C1).

Soli C2 = type: biochemical, Solenopsis invicta
Experimental: as §1

Soli E1 = type: biochemical, Solenopsis invicta
Experimental: as §1

Soli E2 = type: biochemical, Solenopsis invicta
Experimental: as §1

Molecule	IC50 (Soli C1) [nM]	IC50 (Soli C2) [nM]	IC50 (Soli E1) [nM]	IC50 (Soli E2) [nM]	IC50 Soli C1 (Soli C1)	IC50 Soli C2 (Soli C2)
Eglin C: naturally occurring protease inhibitor obtained from Ciba Geigy (protein) TEFGSELKSFPEVVGKTVDQAREYFTLHYPQYDVYFLPEGSPVTLDLRYNRVRVFYNPGTNVVNHVPHVG	1.24	0.442	3.93	1.89		
Soy Bean Trypsin Inhibitor I-S: soybean trypsin inhibitor Type I-S from Sigma (protein) DFVLDNEGNPLENGGTYYILSDITAFGGIRAAPTGNERCPLTVVQSRNELDKGIGTIISSPYRIRFIAEGHPLSLKFDSFAVIMLCVGIPTEWSVVEDLPEGPAVKIGENKDAMDGWFRLERVSDDEFNNYKLVFCPQQAEDDKCGDIGISIDHDDGTRRLVVSKNKPLVVQFQKLDKESL	37	1.41	4.22	5.58		
Lima Bean Trypsin Inhibitor: lima bean trypsin inhibitor from Sigma (protein, not fully specified) SGHHEHSTDXPSXSSKPCCXHCACTKSIPPQCRCTDLRLDSCHSACKSCICTLSIPAQCVCXXIXDFCYEPCKSSHSDDDNNN					active	active
